Measurements from patent US20160032013.

Key:
[1] = target: Recombinant human pro-MSP 689C (C672A, R689C, His tag), uncleaved single chain
[2] = target: Recombinant human pro-MSP 689R (C672A, His tag), uncleaved single chain
Recombinant human pro-MSP 689R (C672A, His tag), uncleaved single chain, sequence (chain, as listed by the source C672A): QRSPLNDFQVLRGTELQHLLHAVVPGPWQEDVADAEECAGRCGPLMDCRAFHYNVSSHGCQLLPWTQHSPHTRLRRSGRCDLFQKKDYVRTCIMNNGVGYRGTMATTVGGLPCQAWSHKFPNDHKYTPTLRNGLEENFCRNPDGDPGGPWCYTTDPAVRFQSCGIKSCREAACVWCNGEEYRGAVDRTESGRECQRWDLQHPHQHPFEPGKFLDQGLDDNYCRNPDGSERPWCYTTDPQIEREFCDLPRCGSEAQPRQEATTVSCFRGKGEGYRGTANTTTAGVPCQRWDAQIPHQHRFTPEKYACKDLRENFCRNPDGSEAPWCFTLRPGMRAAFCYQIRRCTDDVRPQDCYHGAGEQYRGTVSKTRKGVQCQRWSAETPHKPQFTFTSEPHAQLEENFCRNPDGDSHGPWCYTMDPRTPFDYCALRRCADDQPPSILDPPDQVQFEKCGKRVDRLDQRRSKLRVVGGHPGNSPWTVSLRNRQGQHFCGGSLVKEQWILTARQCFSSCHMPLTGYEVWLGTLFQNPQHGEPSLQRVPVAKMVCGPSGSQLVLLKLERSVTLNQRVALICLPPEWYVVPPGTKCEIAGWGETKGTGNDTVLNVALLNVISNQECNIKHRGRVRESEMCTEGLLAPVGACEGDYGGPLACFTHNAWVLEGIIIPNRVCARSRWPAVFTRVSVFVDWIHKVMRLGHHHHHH

Recombinant human pro-MSP 689C (C672A, R689C, His tag), uncleaved single chain, sequence (chain, as listed by the source C672A R689C): as the sequence (chain, as listed by the source C672A) above, with R671C counted along it

B1: sHepsin (extracellular domain of human recombinant hepsin with C-terminal His-tag) (protein)
chain: RSDQEPLYPVQVSSADARLMVFDKTEGTWRLLCSSRSNARVAGLSCEEMGFLRALTHSELDVRTAGANGTSGFFCVDEGRLPHTQRLLEVISVCDCPRGRFLAAICQDCGRRKLPVDDDDKIVGGRDTSLGRWPWQVSLRYDGAHLCGGSLLSGDWVLTAAHCFPERNRVLSRWRVFAGAVAQASPHGLQLGVQAVVYHGGYLPFRDPNSEENSNDIALVHLSSPLPLTEYIQPVCLPAAGQALVDGKICTVTGWGNTQYYGQQAGVLQEARVPIISNDVCNGADFYGNQIKPKMFCAGYPEGGIDACQGDSGGPFVCEDSISRTPRWRLCGIVSWGTGCALAQKPGVYTKVSDFREWIFQAIKTHSEASGMVTQLHHHHHHHH
proteolytic cleavage of pro-MSP by hepsin, SDS-PAGE under reducing conditions, 1 h at 37 C [1]: No obvious difference was observed in the concentration of hepsin required to completely cleave these variants over a 1-hour period
proteolytic cleavage of pro-MSP by hepsin, SDS-PAGE under reducing conditions, 1 h at 37 C [2]: No obvious difference was observed in the concentration of hepsin required to completely cleave these variants over a 1-hour period
